Target: CasX2 (StX2, wild-type reference CasX) (Planctomycetes)
Assay: cleavage_in_vitro; kcleave; TTC PAM
Conditions: tags: N-terminal SV40 NLS, C-terminal NLS, TEV site and twin Strep tag; label: fluorescent
Protocol: In vitro cleavage assays were performed essentially as described in Example 19, using CasX 2 (SED ID NO:2), CasX 119, and CasX 438 complexed with single guide 174 with spacer 7.37 targeted against B2M. Fluorescently labeled dsDNA targets that would be complementary with a 7.37 spacer and either a ITC, CTC, CTC, or ATC PAM were used (The DNA sequences used to generate each dsDNA substrate are shown in Table 29. The PAM sequences for each are bolded. TS—target strand. NTS—Non-target strand). Target DNA was incubated with a 20-fold excess of the indicated RNP and the amount of cleaved target was determined at the indicated. time points. The monophasic fit of the combined replicates is shown. During the assay, samples were taken at 0.25, 0.5, 1, 2, 5, 10, 30, and 60 minutes. Gels were imaged with an Amersham Typhoon and quantified using the IQTL 8,2 software. Apparent first-order rate constants for non-target strand cleavage (kcleave) were determined for each Casx:sgRNA complex on each target. Rate constants for targets with non-TTC PAM were compared to the TIC PAM target to determine whether the relative preference for each PAM was altered for a given CasX variant. The results are shown in FIG. 73 (the monophasic fit of the combined replicates is shown) and Table 30. […]

B1: sgRNA 174.7.37 ; 7.37 TTC PAM target (ssRNA ; dsDNA)
RNA: ACUGGCGCUUUUAUCUGAUUACUUUGAGAGCCAUCACCAGCGACUAUGUCGUAGUGGGUAAAGCUCCCUCUUCGGAGGGAGCAUCAAAGGGCCGAGAUGUCUCGCUCCG
DNA 1: TGAAGCTGACAGCATTCGGGCCGAGATGTCTCGCTCCGTGGCCTTAGCTGTGCTCGCGCT
DNA 2: AGCGCGAGCACAGCTAAGGCCACGGAGCGAGACATCTCGGCCCGAATGCTGTCAGCTTCA
activity: 0.267 min⁻¹
